This assay addresses Ub subunit of the UbcH5c-O~Ub conjugate (UniProt P0CG48 1-76, C-terminus oxyester-linked to Ser85 of UbcH5c). The experiment in a line: NMR titration.

B1: UbcH5c subunit of the UbcH5c-O~Ub conjugate (Cys85Ser, S22R) (enzyme)
chain: not shown
modifications: active site Ser85 oxyester-linked to the Ub C-terminus
As to B1, the binding result was “binds”.
